Measurements: patent US20220389118A1 (Chugai, published 2022)
Substitutions are numbered along the chain they refer to. Names and notes keep the numbering of the source. Like-named read-outs stand apart in the source and are kept apart here. One block for each binder: values may come before it.

How the values were obtained:
[1] = molecular target: T1, human FcγRIIa type R (allotype R131) extracellular domain with C-terminal His tag (human, UniProt P12318 34-217); assay: SPR (Biacore), antibody captured, FcγR analyte
T1 construct: extracellular domain; also called FcγRIIaR; FcγRIIa R type; not shown: His tag at the C terminus
T1 sequence (looked up): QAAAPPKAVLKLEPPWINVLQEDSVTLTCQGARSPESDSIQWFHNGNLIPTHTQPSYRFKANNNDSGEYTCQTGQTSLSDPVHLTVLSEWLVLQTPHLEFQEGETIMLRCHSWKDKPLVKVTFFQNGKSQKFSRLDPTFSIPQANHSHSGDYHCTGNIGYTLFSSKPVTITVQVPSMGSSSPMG

[2] = molecular target: T2, human FcγRIIa type R (R131) extracellular domain with C-terminal His tag (human, UniProt P12318 34-217); assay: SPR (Biacore), antibody captured, FcγR analyte
T2 construct: extracellular domain; also called FcγRIIaR; not shown: His tag at the C terminus
T2 sequence (looked up): T1 sequence (looked up)

[3] = molecular target: T3, human FcγRIa extracellular domain with C-terminal His tag (human, UniProt P12314 16-292); assay: SPR (Biacore), antibody captured, FcγR analyte
T3 construct: not shown: His tag at the C terminus
T3 sequence (P12314 16-292): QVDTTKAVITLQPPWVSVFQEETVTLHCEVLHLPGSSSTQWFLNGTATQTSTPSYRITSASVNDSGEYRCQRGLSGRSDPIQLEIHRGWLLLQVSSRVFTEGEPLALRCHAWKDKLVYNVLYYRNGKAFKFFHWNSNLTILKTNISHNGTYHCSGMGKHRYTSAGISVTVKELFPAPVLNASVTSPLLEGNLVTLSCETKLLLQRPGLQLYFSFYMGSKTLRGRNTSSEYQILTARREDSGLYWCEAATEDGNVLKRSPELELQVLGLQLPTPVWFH

[4] = molecular target: T4, human FcγRIIIa type V (V158) extracellular domain with C-terminal His tag (human, UniProt P08637 17-208); assay: SPR (Biacore), antibody captured, FcγR analyte
T4 construct: extracellular domain; also called FcγRIIIaV; not shown: His tag at the C terminus
T4 sequence (P08637 17-208 F176V): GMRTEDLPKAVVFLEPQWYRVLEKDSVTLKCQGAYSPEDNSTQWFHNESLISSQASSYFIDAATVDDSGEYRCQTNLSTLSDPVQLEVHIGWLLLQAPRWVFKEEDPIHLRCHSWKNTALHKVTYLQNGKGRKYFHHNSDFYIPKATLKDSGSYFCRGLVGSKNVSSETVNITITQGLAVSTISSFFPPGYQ

[5] = molecular target: T5, human FcγRIIa type H (H131) extracellular domain with C-terminal His tag (human, UniProt P12318 34-217); assay: SPR (Biacore), antibody captured, FcγR analyte
T5 construct: extracellular domain; also called FcγRIIaH; not shown: His tag at the C terminus
T5 sequence (looked up): T1 sequence (looked up) with R134H

[6] = molecular target: T6, human FcγRIIa type H extracellular domain with C-terminal His tag (human, UniProt P12318 34-217); assay: SPR, Ref. Ex. 25
T6 construct: extracellular domain; also called FcγRIIaH; FcγRIIa H
T6 sequence (looked up): T1 sequence (looked up) with R134H

[7] = molecular target: T7, human FcγRIIa type R extracellular domain with C-terminal His tag (human, UniProt P12318 34-217); assay: SPR, Ref. Ex. 25
T7 construct: extracellular domain; also called FcγRIIaR; FcγRIIa R
T7 sequence (looked up): T1 sequence (looked up)

[8] = molecular target: T8, human FcγRIIIa type V extracellular domain with C-terminal His tag (human, UniProt P08637 17-208); assay: SPR, Ref. Ex. 25
T8 construct: extracellular domain; also called FcγRIIIaV; FcγRIIIa V type
T8 sequence (P08637 17-208 F176V): as above

[9] = molecular target: T9, human FcγRIIa type R extracellular domain with C-terminal His tag (human, UniProt P12318 34-217); assay: SPR (Biacore)
T9 construct: extracellular domain; also called FcγRIIaR; FcγRIIa(R)
T9 sequence (looked up): T1 sequence (looked up)

[10] = molecular target: T10, human FcγRIIIa type V extracellular domain with C-terminal His tag (human, UniProt P08637 17-208); assay: SPR (Biacore)
T10 construct: extracellular domain; also called FcγRIIIaV; FcγRIIIa(V)
T10 sequence (P08637 17-208 F176V): as above

[11] = molecular target: T11, human FcγRIa extracellular domain with C-terminal His tag (human, UniProt P12314 16-292); assay: SPR (Biacore)
T11 construct: extracellular domain
T11 sequence (P12314 16-292): as the sequence (P12314 16-292) above

[12] = molecular target: T12, human FcγRIIb extracellular domain with C-terminal His tag (human, UniProt P31994 43-217); assay: SPR (Biacore)
T12 construct: extracellular domain
T12 sequence (looked up): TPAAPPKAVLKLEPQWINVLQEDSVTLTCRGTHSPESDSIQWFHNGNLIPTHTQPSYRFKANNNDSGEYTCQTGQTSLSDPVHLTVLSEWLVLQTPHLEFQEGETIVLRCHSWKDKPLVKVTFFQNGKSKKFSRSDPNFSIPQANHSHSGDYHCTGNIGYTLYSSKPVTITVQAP

[13] = molecular target: T13, human FcγRIIb extracellular domain with C-terminal His tag (human, UniProt P31994 43-217); assay: SPR (Biacore), antibody captured, FcγR analyte
T13 construct: extracellular domain; not shown: His tag at the C terminus
T13 sequence (looked up): T12 sequence (looked up)

[14] = molecular target: T3, human FcγRIa extracellular domain with …; assay: SPR (Biacore), antibody captured, FcγR analyte; remark: listed apart in the source
[15] = molecular target: T2, human FcγRIIa type R (R131) …; assay: SPR (Biacore); KD of IL6R-B3/IL6R-L divided by KD of this antibody
[16] = molecular target: T13, human FcγRIIb extracellular domain with …; assay: as above
[17] = molecular target: T13, human FcγRIIb extracellular domain with …; assay: SPR (Biacore); KD for FcγRIIaR divided by KD for FcγRIIb
[18] = molecular target: T3, human FcγRIa extracellular domain with …; assay: SPR (Biacore), antibody captured, FcγR analyte; remark: listed apart in the source
[19] = molecular target: T2, human FcγRIIa type R (R131) …; assay: SPR (Biacore), antibody captured, FcγR analyte; remark: listed apart in the source
[20] = molecular target: T13, human FcγRIIb extracellular domain with …; assay: SPR (Biacore), antibody captured, FcγR analyte; remark: listed apart in the source
[21] = molecular target: T14, human FcγRIIb extracellular domain with C-terminal His tag (human, UniProt P31994 43-217); assay: SPR
T14 construct: extracellular domain; for crystals expressed with kifunensine and trimmed with Endo F1; also called FcγRIIb extracellular region
T14 sequence (looked up): T12 sequence (looked up)

[22] = molecular target: T7, human FcγRIIa type R extracellular …; assay: SPR

- Kd [1]: 600 nM
B1: IL6R-BP223/IL6R-L (antibody, human IgG1, kappa)
heavy: QVQLQESGPGLVKPSETLSLTCAVSGHSISHDHAWSWVRQPPGEGLEWIGFISYSGITNYNPSLQGRVTISRDNSKNTLYLQMNSLRAEDTAVYYCARSLARTTAMDYWGEGTLVTVSSASTKGPSVFPLAPSSKSTSGGTAALGCLVKDYFPEPVTVSWNSGALTSGVHTFPAVLQSSGLYSLSSVVTVPSSSLGTQTYICNVNHKPSNTKVDKKVEPKSCDKTHTCPPCPAPEYLGDDSVFLFPPKPKDTLMISRTPEVTCVVVDVSDEDGEVKFNWYVDGVEVHNAKTKPREEQYNSTYRVVSVLTVLHQDWLNGKEYKCKVSNAALPRPIEKTISKAKGQPREPQVYTLPPSRDELTKNQVSLTCLVKGFYPSDIAVEWESNGQPENNYKTTPPVLDSDGSFFLYSKLTVDKSRWQQGNVFSCSVMHEALHNHYTQESLSLSP
light: not shown
notes: copies: 2 + 2

- Kd [2]: 600 nM
B2: IL6R-BP469/IL6R-L (antibody, human IgG1, kappa)
heavy: B1 heavy with E235D, Y236L, Y298D, A328K, E335S
light: not shown
notes: E333S introduced into IL6R-BP230; copies: 2 + 2

- Kd [3]: 4 nM
B3: IL6R-BP267/IL6R-L (antibody, human IgG1, kappa)
heavy: B1 heavy with E235D, Y236L, D270E, A328K, R332A
light: not shown
notes: alterations counted against IL6R-B3; copies: 2 + 2

- Kd [4]: 9000 nM
B4: IL6R-BP462/IL6R-L (antibody, human IgG1, kappa)
heavy: B1 heavy with E235D, Y236L, S269A, D270E, A328K, P398V
light: not shown
notes: P396V introduced into IL6R-BP423; copies: 2 + 2

- Kd [5]: 10000 nM
B5: IL6R-BP470/IL6R-L (antibody, human IgG1, kappa)
heavy: B1 heavy with E235D, Y236L, Y298D, A328K, E335T
light: not shown
notes: E333T introduced into IL6R-BP230; copies: 2 + 2

- Kd [6]: 20000 nM
- Kd [7]: 22000 nM
- Kd [8]: 37000 nM
B6: IL6R-PD087/IL6R-L (antibody, human IgG1, kappa)
heavy: B1 heavy with Y236L, D239M, M254Y, D270H, G273P, A328K, R332A, N436Y, E441K
light: not shown
notes: also called P238D/G237M; G237M/P238D; copies: 2 + 2

- Kd [9]: 2.1 nM
- Kd [10]: 3600 nM
- Kd [11]: 0.067 nM
- Kd [12]: 11 nM
B7: IL6R-BP253/IL6R-L (antibody, human IgG1, kappa)
heavy: B1 heavy with Y236L, D239G, D240P, S269E, D270H, G273P, A328K, L330F, R332A
light: not shown
notes: Comparison control with existing alterations; copies: 2 + 2

- Kd [13]: 40 nM
B8: IL6R-BP468/IL6R-L (antibody, human IgG1, kappa)
heavy: B1 heavy with E235D, Y236L, Y298D, A328K, K336T
light: not shown
notes: copies: 2 + 2

- Kd [14]: 3 nM
B9: IL6R-BP384/IL6R-L (antibody, human IgG1, kappa)
heavy: B1 heavy with E235D, Y236L, Y298D, A328K, K336R
light: not shown
notes: K334R introduced into IL6R-BP230; copies: 2 + 2

- KD(IIaR) of parent polypeptide/KD(IIaR) of altered polypeptide [15]: 2
- KD(IIb) of parent polypeptide/KD(IIb) of altered polypeptide [16]: 161
- KD(IIaR)/KD(IIb) [17]: 28
- Kd [18]: 7.7 nM
- Kd [19]: 540 nM
- Kd [20]: 19 nM
B10: IL6R-BP478/IL6R-L (antibody)
heavy: QVQLQESGPGLVKPSETLSLTCAVSGHSISHDHAWSWVRQPPGEGLEWIGFISYSGITNYNPSLQGRVTISRDNSKNTLYLQMNSLRAEDTAVYYCARSLARTTAMDYWGEGTLVTVSSASTKGPSVFPLAPCSRSTSESTAALGCLVKDYFPEPVTVSWNSGALTSGVHTFPAVLQSSGLYSLSSVVTVPSSSLGTKTYTCNVDHKPSNTKVDKRVESKYGPPCPPCPAPDLLGDDSVFLFPPKPKDTLMISRTPEVTCVVVDVSDEDGEVKFNWYVDGVEVHNAKTKPREEQDNSTYRVVSVLTVLHQDWLNGKEYKCKVSNKALPRPIEKTISKAKGQPREPQVYTLPPSRDELTKNQVSLTCLVKGFYPSDIAVEWESNGQPENNYKTTPPVLDSDGSFFLYSKLTVDKSRWQQGNVFSCSVMHEALHNHYTQESLSLSP
light: not shown
notes: copies: 2 + 2

- fold against IL6R-BP230/IL6R-L [21]: 1.1 fold
- fold against IL6R-BP230/IL6R-L [22]: 1.1 fold
B11: IL6R-BP478/IL6R-L (antibody)
heavy: B10 heavy
light: not shown
notes: IL6R-BP230 in which Ala118-Thr225 (EU numbering) is replaced by Ala118-Pro222 of G4d; copies: 2 + 2
